Laboratory results from patent publication US20210179666A1 (REGENTS OF THE UNIVERSITY OF MINNESOTA, published 2021).
Where two headings read alike, the source gives them in different places. Square brackets hold non-standard residues; d marks the D form.

Assays:
[1] = target: T1, human melanocortin 4 receptor (human, UniProt P32245 1-332); assay: 125I-NDP-MSH competition, HEK293 cells
T1 construct: whole, on cells; the assays used the receptor on HEK293 cells; also called hMC4R

[2] = target: T2, mouse melanocortin 5 receptor (mouse, UniProt P41149 1-325); assay: 125I-NDP-MSH competition, HEK293 cells
T2 construct: whole, on cells; also called mMC5R; MC5R

[3] = target: T3, mouse melanocortin 4 receptor (mouse, UniProt P56450 1-332); assay: 125I-NDP-MSH competition, HEK293 cells
T3 construct: whole, on cells; also called mMC4R; MC4R

[4] = target: T4, mouse melanocortin 1 receptor (mouse, UniProt Q01727 1-315); assay: 125I-NDP-MSH competition, HEK293 cells
T4 construct: whole, on cells; also called mMC1R; MC1R

[5] = target: T5, mouse melanocortin 3 receptor (mouse, UniProt P33033 1-323); assay: 125I-NDP-MSH competition, HEK293 cells
T5 construct: whole, on cells; also called mMC3R; MC3R

[6] = target: T2, mouse melanocortin 5 receptor; assay: 125I-NDP-MSH competition; fold vs SEQ ID NO: 1 control
[7] = target: T3, mouse melanocortin 4 receptor; assay: as above
[8] = target: T4, mouse melanocortin 1 receptor; assay: as above
[9] = target: T5, mouse melanocortin 3 receptor; assay: as above
[10] = target: T1, human melanocortin 4 receptor; assay: as above
[11] = target: T2, mouse melanocortin 5 receptor; assay: cell-based or functional assay
[12] = target: T3, mouse melanocortin 4 receptor; assay: cell-based or functional assay
[13] = target: T4, mouse melanocortin 1 receptor; assay: cell-based or functional assay
[14] = target: T5, mouse melanocortin 3 receptor; assay: cell-based or functional assay
[15] = target: T1, human melanocortin 4 receptor; assay: cell-based or functional assay
[16] = target: T2, mouse melanocortin 5 receptor; assay: cell-based or functional assay; remark: listed apart in the source
[17] = target: T3, mouse melanocortin 4 receptor; assay: cell-based or functional assay; remark: listed apart in the source
[18] = target: T5, mouse melanocortin 3 receptor; assay: cell-based or functional assay; remark: listed apart in the source

T5 sequence (P33033 whole entry): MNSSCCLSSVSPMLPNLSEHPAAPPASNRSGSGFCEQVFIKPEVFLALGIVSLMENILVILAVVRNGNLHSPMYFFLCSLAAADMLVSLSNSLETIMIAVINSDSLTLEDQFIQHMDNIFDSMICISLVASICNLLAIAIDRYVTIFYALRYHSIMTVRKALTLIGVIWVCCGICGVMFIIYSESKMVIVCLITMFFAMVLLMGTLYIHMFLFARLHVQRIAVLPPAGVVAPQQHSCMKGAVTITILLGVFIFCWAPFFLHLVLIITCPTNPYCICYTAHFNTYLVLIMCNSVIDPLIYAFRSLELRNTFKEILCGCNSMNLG
T1 sequence (P32245 whole entry): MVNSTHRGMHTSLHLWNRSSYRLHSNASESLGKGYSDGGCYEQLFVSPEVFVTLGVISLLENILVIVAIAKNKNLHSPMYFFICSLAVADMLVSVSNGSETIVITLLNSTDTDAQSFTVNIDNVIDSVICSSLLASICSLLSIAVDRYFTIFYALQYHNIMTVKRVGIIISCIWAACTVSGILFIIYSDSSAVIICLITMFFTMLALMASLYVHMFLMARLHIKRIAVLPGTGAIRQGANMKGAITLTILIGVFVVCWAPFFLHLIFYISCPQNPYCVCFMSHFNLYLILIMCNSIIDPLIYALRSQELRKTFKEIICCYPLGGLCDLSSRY
T2 sequence (P41149 whole entry): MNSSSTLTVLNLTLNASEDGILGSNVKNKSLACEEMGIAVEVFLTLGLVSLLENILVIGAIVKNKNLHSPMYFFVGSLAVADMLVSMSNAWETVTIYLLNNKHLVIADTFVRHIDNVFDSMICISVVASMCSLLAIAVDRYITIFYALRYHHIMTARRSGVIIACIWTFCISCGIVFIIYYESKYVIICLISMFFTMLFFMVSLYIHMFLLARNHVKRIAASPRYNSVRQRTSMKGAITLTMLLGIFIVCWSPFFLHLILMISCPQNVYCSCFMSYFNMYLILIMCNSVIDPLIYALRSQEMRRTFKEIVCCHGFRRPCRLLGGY
T4 sequence (Q01727 whole entry): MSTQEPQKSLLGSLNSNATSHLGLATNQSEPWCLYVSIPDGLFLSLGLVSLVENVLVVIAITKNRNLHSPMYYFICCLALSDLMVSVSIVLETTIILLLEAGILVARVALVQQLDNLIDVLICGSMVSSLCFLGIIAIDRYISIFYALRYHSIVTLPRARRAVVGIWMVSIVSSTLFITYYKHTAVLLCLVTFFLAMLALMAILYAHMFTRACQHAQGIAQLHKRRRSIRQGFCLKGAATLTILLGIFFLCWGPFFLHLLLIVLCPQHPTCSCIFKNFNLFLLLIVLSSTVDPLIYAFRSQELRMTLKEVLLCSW
T3 sequence (P56450 whole entry): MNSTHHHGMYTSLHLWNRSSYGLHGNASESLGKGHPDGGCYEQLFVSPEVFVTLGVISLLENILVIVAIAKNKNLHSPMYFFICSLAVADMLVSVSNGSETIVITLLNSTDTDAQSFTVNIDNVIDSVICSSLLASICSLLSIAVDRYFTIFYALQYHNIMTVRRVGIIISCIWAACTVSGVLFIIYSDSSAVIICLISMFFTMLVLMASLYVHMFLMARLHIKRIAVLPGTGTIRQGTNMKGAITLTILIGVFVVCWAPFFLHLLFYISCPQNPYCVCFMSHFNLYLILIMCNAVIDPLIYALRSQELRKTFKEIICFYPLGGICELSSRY

| IC50 [1] [µM] | IC50 [3] [nM] | IC50 [4] [µM] | Fold Diff [7] [fold] | Fold Diff [8] [fold] | Fold Diff [10] [fold] | pA2 (Schild analysis, agonist NDP-MSH, cAMP) [15] | Binder | further results |
| --- | --- | --- | --- | --- | --- | --- | --- | --- |
| 0.25 | 38 | 15 | 2 | 2 | 3 | 7.8 | cyclo(PRFFNVF[dP]) (Ala115Val SNP in the Asn scaffold; also called c[Pro-Arg-Phe-Phe-Asn-Val-Phe-DPro]) [ZMK 2-82] | IC50 [2]: 29 µM; IC50 [5]: 53 µM; Fold Diff [6]: 2 fold; Fold Diff [9]: 3 fold; EC50 (cAMP agonist) [11]: > 100 µM; pA2 (Schild analysis, agonist NDP-MSH, cAMP) [11]: 6.1; pA2 (Schild analysis, agonist NDP-MSH, cAMP) [12]: 7.2; percent maximal stimulatory response at 100 µM (cAMP) [12]: 16%; percent maximal stimulatory response at 100 µM (cAMP) [13]: 23%; EC50 (cAMP agonist) [14]: > 100 µM; pA2 (Schild analysis, agonist NDP-MSH, cAMP) [14]: 5.9 |
| 19.3 | 1900 | 24.6 | 90 | 3 | 300 | 5.8 | cyclo(PCFFNAF[dP]) (Arg111Cys SNP in the Asn scaffold; also called c[Pro-Cys-Phe-Phe-Asn-Ala-Phe-DPro]) [ZMK 3-18] | pA2 (Schild analysis, agonist NDP-MSH, cAMP) [16]: < 5; pA2 (Schild analysis, agonist NDP-MSH, cAMP) [17]: 5.9; pA2 (Schild analysis, agonist NDP-MSH, cAMP) [18]: < 5 |
